The source of these data is US20160185837A1, “GIP AND GLP-1 RECEPTOR DUAL-AGONISTS FOR THE TREATMENT OF DIABETES” (Medimmune Limited, priority 2013, published 2016).

To fix the notation:
T1: human GIP receptor (human) (UniProt P48546)
T1 sequence (looked up): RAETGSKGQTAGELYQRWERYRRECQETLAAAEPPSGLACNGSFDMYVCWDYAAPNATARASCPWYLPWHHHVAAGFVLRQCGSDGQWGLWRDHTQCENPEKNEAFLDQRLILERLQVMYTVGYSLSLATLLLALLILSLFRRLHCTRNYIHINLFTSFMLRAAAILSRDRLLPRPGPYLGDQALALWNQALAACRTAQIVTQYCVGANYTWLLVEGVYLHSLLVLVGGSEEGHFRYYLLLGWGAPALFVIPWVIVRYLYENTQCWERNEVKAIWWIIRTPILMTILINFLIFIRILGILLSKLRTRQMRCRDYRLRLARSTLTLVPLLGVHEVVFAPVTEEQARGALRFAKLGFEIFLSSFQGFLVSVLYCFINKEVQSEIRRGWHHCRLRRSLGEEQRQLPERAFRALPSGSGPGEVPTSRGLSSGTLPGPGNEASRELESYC

T2: mouse GIP receptor (mouse) (UniProt Q0P543)
T2 sequence (looked up): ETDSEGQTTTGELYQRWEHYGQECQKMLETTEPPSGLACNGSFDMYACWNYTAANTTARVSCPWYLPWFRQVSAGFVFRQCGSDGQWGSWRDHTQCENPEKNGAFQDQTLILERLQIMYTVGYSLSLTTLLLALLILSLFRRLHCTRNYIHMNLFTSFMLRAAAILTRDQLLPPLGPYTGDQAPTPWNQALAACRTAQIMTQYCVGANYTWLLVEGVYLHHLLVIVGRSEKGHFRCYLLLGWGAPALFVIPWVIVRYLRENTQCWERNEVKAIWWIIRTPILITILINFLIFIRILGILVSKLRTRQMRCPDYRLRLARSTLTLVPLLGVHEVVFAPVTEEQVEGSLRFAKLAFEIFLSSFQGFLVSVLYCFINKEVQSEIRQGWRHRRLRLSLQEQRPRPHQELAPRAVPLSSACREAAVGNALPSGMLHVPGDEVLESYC

T3: rat GIP receptor (rat) (UniProt P43219)
T3 sequence (looked up): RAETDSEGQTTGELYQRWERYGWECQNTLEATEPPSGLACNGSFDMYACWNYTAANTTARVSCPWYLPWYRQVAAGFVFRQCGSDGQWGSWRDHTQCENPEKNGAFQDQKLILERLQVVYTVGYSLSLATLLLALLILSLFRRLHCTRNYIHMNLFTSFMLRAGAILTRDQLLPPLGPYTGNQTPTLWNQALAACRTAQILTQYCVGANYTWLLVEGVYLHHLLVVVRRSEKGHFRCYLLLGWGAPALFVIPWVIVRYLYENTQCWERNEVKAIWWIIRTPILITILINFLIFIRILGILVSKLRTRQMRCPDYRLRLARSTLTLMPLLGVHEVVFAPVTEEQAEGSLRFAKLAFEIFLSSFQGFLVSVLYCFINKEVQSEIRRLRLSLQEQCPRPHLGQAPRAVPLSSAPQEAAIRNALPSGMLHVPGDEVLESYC

B1: IP338 (Fc fusion)
chain: YSEGTFISDYSIAMDKIHQQDFVNWLLAQKGGGGGSGGGGSGGGGSGGGGSGGGGSGGGGSGGGGSGGGGSAN
B2: IP402 (Fc fusion)
chain: YSEGTFISDYSIAMDKIHQQDFVNWLLAQKGSGGGGSGGGGSGGGGSGGGGSGGGGSGGGGSGGGGSACPPC
B3: IP389 (Fc fusion)
chain: YSEGTFISDYSIAMDKIHQQDFVNWLLAQKGGGGGSGGGGSGGGGSGGGGSGGGGSGGGGSGGGGSACPPC
B4: IP247 (Fc fusion)
chain: YSEGTFTSDYSKLLEKIHQQLFIEWLVKGPAAAGGSGSTASSGSGSATGGGGAATHTCPPCPAPEF
B5: IP392 (Fc fusion)
chain: YSEGTFISDYSIAMDKIHQQDFVNWLLAQKGAANDWKHNITQGGGGSGGGGSGGGGSGGGGSGGGGSGGGGSACPPC
B6: IP398 (Fc fusion)
chain: B5 chain with A32K, A33K
B7: IP386 (Fc fusion)
chain: YSEGTFISDYSIAMDKIHQQDFVNWLLAQKGGGGGSGGGGSGGGGSGGGGSACPPC
B8: IP335 (Fc fusion)
chain: YSEGTFISDYSIAMDKIHQQDFVNWLLAQKGGGGGSGGGGSGGGGSGGGGSA
B9: IP209 (Fc fusion)
chain: YSEGTFTSDYSSYMERQAIDEFIAWLLKGGAAAGGSGSTASSGSGSATGGGGAATHTCPPCPAPEF
B10: IP336 (Fc fusion)
chain: YSEGTFISDYSIAMDKIHQQDFVNWLLAQKGGGGGSGGGGSGGGGSGGGGSGGGGSGGGGSA
B11: IP344 (Fc fusion)
chain: YSEGTFISDYSIAMDKIHQQDFVNWLLAQKGGGGGSGGGGSGGGGSGGGGSGGGGSA
B12: IP351 (Fc fusion)
chain: YSEGTFISDYSIAMDKIHQQDFVNWLLAQKPSSGAPPPSGGGGSGGGGSGGGGSGGGGSACPPC
B13: IP387 (Fc fusion)
chain: YSEGTFISDYSIAMDKIHQQDFVNWLLAQKGGGGGSGGGGSGGGGSGGGGSGGGGSGGGGSGGGGSGGGGSACPPC
B14: IP275 (Fc fusion)
chain: YSEGTFTSDYSKLLEKEAQRLFIEWLLKGPGGGGGSGGGGSGGGGSGGGGSATHTCPPC
B15: IP337 (Fc fusion)
chain: YSEGTFISDYSIAMDKIHQQDFVNWLLAQKGGGGGSGGGGSGGGGSGGGGSGGGGSGGGGSGGGGSA

Changes are numbered by the printed parent chain.

Sequence of mouse GLP-1 receptor (mouse) (O35659 22-463): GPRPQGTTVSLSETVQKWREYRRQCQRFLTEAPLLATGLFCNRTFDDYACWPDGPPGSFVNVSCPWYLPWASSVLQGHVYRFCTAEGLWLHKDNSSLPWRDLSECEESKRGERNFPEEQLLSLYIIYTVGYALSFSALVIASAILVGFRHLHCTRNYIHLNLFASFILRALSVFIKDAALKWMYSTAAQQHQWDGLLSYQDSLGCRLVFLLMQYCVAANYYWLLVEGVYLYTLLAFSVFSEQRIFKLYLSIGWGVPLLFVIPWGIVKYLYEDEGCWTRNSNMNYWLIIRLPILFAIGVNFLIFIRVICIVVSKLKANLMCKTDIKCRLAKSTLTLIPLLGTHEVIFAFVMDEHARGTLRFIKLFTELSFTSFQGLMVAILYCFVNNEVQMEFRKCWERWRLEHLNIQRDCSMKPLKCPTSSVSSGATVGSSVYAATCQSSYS

One assay deals with T1, human GIP receptor (human). Briefly: cell-based or functional assay.
As to B1, the cAMP EC50 came to 0.0052 nM.

Regarding B2, the cAMP EC50 worked out at 0.038 nM.

B3: the cAMP EC50 is 0.0027 nM.

Regarding B4, the cAMP EC50 worked out at 0.019 nM.

B5: the cAMP EC50 came out at 0.0026 nM.

Consider B6, for which the cAMP EC50 was found to be 0.0037 nM.

On to B7, for which the cAMP EC50 was determined as 0.0034 nM.

As for B8, the cAMP EC50 amounted to 0.0058 nM.

For B9, the cAMP EC50 was found to be 0.058 nM and the cAMP EC50, Batch 2 is 0.028 nM.

In the case of B10, the cAMP EC50 came out at 0.005 nM.

In the case of B11, the cAMP EC50 turned out to be 0.0053 nM.

The molecule B12 showed a cAMP EC50 of 0.0036 nM.

B13 came in with a cAMP EC50 of 0.0045 nM.

B14: the cAMP EC50 came to 0.0087 nM.

As to B15, the cAMP EC50 was 0.0062 nM.

In another assay the target is human GLP-1 receptor (human) (UniProt P43220). Briefly: cell-based or functional assay.
Sequence of human GLP-1 receptor (human) (P43220 24-463): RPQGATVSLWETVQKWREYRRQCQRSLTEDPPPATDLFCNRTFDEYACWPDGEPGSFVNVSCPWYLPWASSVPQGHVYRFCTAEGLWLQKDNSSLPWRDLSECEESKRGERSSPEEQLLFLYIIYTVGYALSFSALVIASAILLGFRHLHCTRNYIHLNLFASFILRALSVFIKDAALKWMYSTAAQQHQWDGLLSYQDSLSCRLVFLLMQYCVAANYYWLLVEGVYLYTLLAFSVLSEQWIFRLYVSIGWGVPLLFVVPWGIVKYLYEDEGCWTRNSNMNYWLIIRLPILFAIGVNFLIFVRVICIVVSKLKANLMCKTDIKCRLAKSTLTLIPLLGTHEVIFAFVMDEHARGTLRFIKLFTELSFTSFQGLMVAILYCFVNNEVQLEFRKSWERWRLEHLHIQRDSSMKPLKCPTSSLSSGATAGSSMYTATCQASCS
As for B1, the cAMP EC50 was > 1890 nM.

Take B2: the cAMP EC50 worked out at 31 nM.

As for B3, the cAMP EC50 is 65 nM.

The molecule B4 gave a cAMP EC50 of 63 nM.

B5 yielded a cAMP EC50 of 2800 nM.

On to B6, for which the cAMP EC50 came to 9500 nM.

Turning to B7, the cAMP EC50 was > 9130 nM.

For the molecule B8, the cAMP EC50 is > 5480 nM.

Molecule B9 registered a cAMP EC50 of 0.23 nM and a cAMP EC50, Batch 2 of 0.2 nM.

In the case of B10, the cAMP EC50 is > 4510 nM.

With B11, the cAMP EC50 was > 8550 nM.

B12 displayed a cAMP EC50 of 110 nM.

Regarding B13, the cAMP EC50 turned out to be 370 nM.

Molecule B14 displayed a cAMP EC50 of 0.92 nM.

For the molecule B15, the cAMP EC50 is > 2300 nM.

In the next assay the target is human glucagon receptor (human) (UniProt P47871). In words: cell-based or functional assay.
Sequence of human glucagon receptor (human) (P47871 26-477): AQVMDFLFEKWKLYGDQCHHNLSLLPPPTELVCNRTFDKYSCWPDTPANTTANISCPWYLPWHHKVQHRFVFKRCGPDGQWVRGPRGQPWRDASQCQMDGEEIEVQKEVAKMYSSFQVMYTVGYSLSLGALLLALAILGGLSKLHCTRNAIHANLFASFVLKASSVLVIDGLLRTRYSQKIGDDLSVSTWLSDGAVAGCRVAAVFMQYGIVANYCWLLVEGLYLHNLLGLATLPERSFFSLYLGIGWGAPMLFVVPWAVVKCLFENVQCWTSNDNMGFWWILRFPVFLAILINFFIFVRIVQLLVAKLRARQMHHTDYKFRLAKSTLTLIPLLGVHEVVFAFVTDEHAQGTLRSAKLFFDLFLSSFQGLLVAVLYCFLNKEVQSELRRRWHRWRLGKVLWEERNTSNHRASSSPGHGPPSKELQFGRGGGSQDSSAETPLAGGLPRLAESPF
Take B1: the cAMP EC50 worked out at 190 nM.

The molecule B2 yielded a cAMP EC50 of 200 nM.

On to B3, for which the cAMP EC50 was > 269 nM.

Regarding B4, the cAMP EC50 is > 420 nM.

Regarding B5, the cAMP EC50 is 530 nM.

B6: the cAMP EC50 was determined as 1600 nM.

In the case of B7, the cAMP EC50 is 540 nM.

For the molecule B8, the cAMP EC50 worked out at 280 nM.

For B9, the cAMP EC50, Batch 2 was > 6270 nM.

As for B10, the cAMP EC50 amounted to 200 nM.

The molecule B11 showed a cAMP EC50 of 200 nM.

Molecule B12 displayed a cAMP EC50 of 130 nM.

In turn, B13 registered a cAMP EC50 of 220 nM.

Take B14: the cAMP EC50 worked out at 230 nM.

As for B15, the cAMP EC50 came out at 200 nM.

A further assay has as its target T2, mouse GIP receptor (mouse). Briefly: cell-based or functional assay.
B1 had a cAMP EC50 of 0.012 nM.

With B2, the cAMP EC50 was determined as 0.033 nM.

For the molecule B3, the cAMP EC50 was 0.017 nM.

For B4, the cAMP EC50 came to 2.3 nM.

B5 showed a cAMP EC50 of 0.031 nM.

Take B6: the cAMP EC50 was 0.012 nM.

The molecule B7 showed a cAMP EC50 of 0.03 nM.

B8: the cAMP EC50 was found to be 0.02 nM.

As to B9, the cAMP EC50 is 4.9 nM and the cAMP EC50, Batch 2 was > 6300 nM.

In the case of B10, the cAMP EC50 was found to be 0.012 nM.

Take B11: the cAMP EC50 turned out to be 0.011 nM.

In the case of B12, the cAMP EC50 amounted to 0.0098 nM.

Regarding B13, the cAMP EC50 is 0.019 nM.

Consider B14, for which the cAMP EC50 amounted to 0.26 nM.

B15 yielded a cAMP EC50 of 0.013 nM.

Another assay has as its target mouse GLP-1 receptor (mouse) (UniProt O35659). Briefly: cell-based or functional assay.
Turning to B1, the cAMP EC50 is > 945 nM.

Regarding B2, the cAMP EC50 was found to be 850 nM.

As to B3, the cAMP EC50 amounted to 1300 nM.

On to B4, for which the cAMP EC50 came to 280 nM.

On to B5, for which the cAMP EC50 is > 17100 nM.

Turning to B6, the cAMP EC50 was > 17200 nM.

With B7, the cAMP EC50 is > 16600 nM.

For B8, the cAMP EC50 was > 2740 nM.

In turn, B9 had a cAMP EC50 of 0.84 nM and a cAMP EC50, Batch 2 of 1.6 nM.

As for B10, the cAMP EC50 is > 2260 nM.

On to B11, for which the cAMP EC50 is > 8550 nM.

Turning to B12, the cAMP EC50 is 820 nM.

Take B13: the cAMP EC50 is > 1470 nM.

For the molecule B14, the cAMP EC50 was 1.7 nM.

As to B15, the cAMP EC50 is > 1150 nM.

The target in another assay is T3, rat GIP receptor (rat). In words: cell-based or functional assay.
B1: the cAMP EC50 was 0.005 nM.

Consider B2, for which the cAMP EC50 stood at 0.0068 nM.

The molecule B3 came in with a cAMP EC50 of 0.0072 nM.

In the case of B4, the cAMP EC50 came to 0.03 nM.

For the molecule B5, the cAMP EC50 was found to be 0.0076 nM.

In the case of B6, the cAMP EC50 is 0.0056 nM.

The molecule B7 had a cAMP EC50 of 0.0085 nM.

In the case of B8, the cAMP EC50 was 0.0067 nM.

The molecule B9 yielded a cAMP EC50 of 0.22 nM and a cAMP EC50, Batch 2 of 1.3 nM.

The molecule B10 returned a cAMP EC50 of 0.0047 nM.

The molecule B11 had a cAMP EC50 of 0.0062 nM.

B12 gave a cAMP EC50 of 0.0063 nM.

B13 returned a cAMP EC50 of 0.0075 nM.

In turn, B14 returned a cAMP EC50 of 0.014 nM.

On to B15, for which the cAMP EC50 came to 0.0052 nM.

The target in the next assay is rat GLP-1 receptor (rat) (UniProt P32301). In words: cell-based or functional assay.
Sequence of rat GLP-1 receptor (rat) (P32301 22-463): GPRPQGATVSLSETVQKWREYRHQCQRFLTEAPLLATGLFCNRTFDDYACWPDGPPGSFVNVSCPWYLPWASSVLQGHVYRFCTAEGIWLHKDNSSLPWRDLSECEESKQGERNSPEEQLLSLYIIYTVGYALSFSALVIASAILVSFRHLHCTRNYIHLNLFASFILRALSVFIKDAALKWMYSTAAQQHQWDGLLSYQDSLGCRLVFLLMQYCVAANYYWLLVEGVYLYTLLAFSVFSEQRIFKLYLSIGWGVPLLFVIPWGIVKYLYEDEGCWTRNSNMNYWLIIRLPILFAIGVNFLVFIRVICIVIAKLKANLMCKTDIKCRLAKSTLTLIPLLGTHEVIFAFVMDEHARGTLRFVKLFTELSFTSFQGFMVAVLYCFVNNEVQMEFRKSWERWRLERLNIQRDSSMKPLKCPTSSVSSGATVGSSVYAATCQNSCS
Regarding B1, the cAMP EC50 was > 945 nM.

B2: the cAMP EC50 stood at 11 nM.

As for B3, the cAMP EC50 is 9.9 nM.

B4 registered a cAMP EC50 of 11 nM.

On to B5, for which the cAMP EC50 worked out at 720 nM.

B6 had a cAMP EC50 of 14000 nM.

On to B7, for which the cAMP EC50 was > 16600 nM.

For the molecule B8, the cAMP EC50 is > 2740 nM.

As to B9, the cAMP EC50 amounted to 0.075 nM and the cAMP EC50, Batch 2 is 0.091 nM.

Turning to B10, the cAMP EC50 is > 2260 nM.

B11: the cAMP EC50 is > 8550 nM.

Consider B12, for which the cAMP EC50 was found to be 210 nM.

In turn, B13 had a cAMP EC50 of 110 nM.

B14 returned a cAMP EC50 of 0.062 nM.

On to B15, for which the cAMP EC50 is > 1150 nM.
